For 167 variants, self-cleavage results are on record in the RNAGym collection of RNA variant scans (doi:10.7554/elife.80360).

To fix the notation:
B1: HDV Ribozyme (parent)
chain: GGCCGGCAUGGUCCCAGCCUCCUCGCUGGCGCCGGCUGGGCAACAUUCCGAGGGGACCGUCCCCUCGGUAAUGGCGAAUGGGACCCA

The variants in the data set derive from B1. Nature of the data set: self-cleavage, relative activity (ratio to wild type); higher = more cleavage; co-transcriptional.
Turning to U47C C63U, the self-cleavage is 1.07. For C48A G80U, the self-cleavage worked out at 0.242. For the variant C48G G81C, the self-cleavage came out at 0.185.

Turning to U12G G74A, the self-cleavage was determined as 0.18.

On to U60C C85A, for which the self-cleavage is 0.712. For the variant U27A G76C, the self-cleavage was found to be 0.943.

For the variant C58G C66G, the self-cleavage is 0.95. For U20G G50A, the self-cleavage came out at 0.151. For C3A C13A, the self-cleavage stood at 0.0329. Turning to C61G C62A, the self-cleavage was determined as 0.958. As for A78G G81C, the self-cleavage is 0.148.

With U47A U65C, the self-cleavage came to 0.8. For the variant C18G G50C, the self-cleavage came out at 0.

Take U47G U65G: the self-cleavage is 0.95.

For the variant A8C G76C, the self-cleavage was 0.705. Turning to C44A C57U, the self-cleavage came to 0.582. As for C3U C26U, the self-cleavage was found to be 0.65. For C49U U65C the value was 0.902; for C13U C49A, 0.727; for U23C G73U, 0.148. For G17U A71U, the self-cleavage stood at 0.443. Consider C66G C85U, for which the self-cleavage was 0.933. For C44U C58U the value was 0.755; for C15A C62G, 0.499; for C14A U46G, 0.525. For the variant C18A G25U, the self-cleavage is 0.162. Turning to C19U C61A, the self-cleavage was 0.243.

Take C36G A43U: the self-cleavage stood at 0.0755. With C15U G35A, the self-cleavage was 0.475. In the case of G28U A78U, the self-cleavage came out at 0.0723. G6U G31C: the self-cleavage came to 0.122. For U23A A70C the value was 1.01; for C57A U79G, 0.831; for C32U G38U, 0.205. Turning to A56U G81C, the self-cleavage turned out to be 0.312.

For C15U C33U, the self-cleavage is 0.708. As for C30G A71G, the self-cleavage was 0.0339. For G11A G35A the value was 0.272; for G68A A78C, 0.0733. Regarding G40U C49A, the self-cleavage stood at 0.787. Regarding C26A G81A, the self-cleavage turned out to be 0.712. C41G G53A: the self-cleavage was found to be 0.485. C48A A71C: the self-cleavage is 0.688.

In the case of G28C G31C, the self-cleavage came to 0. As for C19U G52U, the self-cleavage stood at 0.265. Consider A43G A87G, for which the self-cleavage turned out to be 0.634. With U12A C75U, the self-cleavage came to 0.0361.

C4A C84U: the self-cleavage was determined as 0.172.

With G10U C36A, the self-cleavage was 0.067. In the case of G29U C85U, the self-cleavage is 0.086.

For U20A C58U, the self-cleavage was found to be 0.158. On to G34C U60A, for which the self-cleavage was 0.306.

With G28C G52A, the self-cleavage was determined as 0.119.

Take U9C U12A: the self-cleavage amounted to 0.511. As to C21U C62G, the self-cleavage worked out at 0.244. The result for G55C U79G reads 0.802; that for C48U C57A, 0.972. In the case of C61A A78G, the self-cleavage amounted to 0.678. In the case of C14G C30G, the self-cleavage was found to be 0.0692. Consider C61A C86U, for which the self-cleavage stood at 1.01. For C33U G68U, the self-cleavage came out at 0.678. Consider G81A C84G, for which the self-cleavage stood at 0.237.

As for C58G U69A, the self-cleavage worked out at 0.911.

For the variant G1C C4A, the self-cleavage worked out at 0.

As to C4A C63U, the self-cleavage was 0.344.

Regarding A8G G80A, the self-cleavage turned out to be 0.148. Regarding C3G C19A, the self-cleavage was determined as 0.0594. As to G39A G73U, the self-cleavage worked out at 0.0845.

With C36U G67A, the self-cleavage was 0.712. Take C14U G80U: the self-cleavage came to 0.4. Turning to U37A C66U, the self-cleavage worked out at 0.314. Regarding G31C G59U, the self-cleavage came to 0.252. C32U G82U: the self-cleavage is 0.256. With C61U G68A, the self-cleavage came to 0.727. On to U9A C13G, for which the self-cleavage is 0.111. For G28C A71C the value was 0.0475; for G50U G52C, 0.803; for G40U C62G, 0.467. Consider C18U G59A, for which the self-cleavage was 0.896. Regarding C44A G76U, the self-cleavage came out at 0.767.

With C3G A56U, the self-cleavage was determined as 0.769. For the variant C48U U60C, the self-cleavage amounted to 1.27. For the variant G25C A51U, the self-cleavage stood at 0.148. C24U: the self-cleavage amounted to 0.73. Regarding G28A C48A, the self-cleavage amounted to 0.0978. For U23G U65G the value was 0.674.

As to G52A C85G, the self-cleavage was determined as 1. With G25U C86U, the self-cleavage was 0.108.

For G25U C86A, the self-cleavage is 0.102. The result for C14G C58A reads 0.639; that for C3U C64G, 0.915; that for A56C C62A, 0.935.

Consider G1U A70U, for which the self-cleavage was 0.381. Regarding A43C A77C, the self-cleavage worked out at 0.0923. For G2A G52C the value was 0.112; for C18G G81U, 0.

Turning to A71C G74U, the self-cleavage worked out at 0.789. Take C58U C75G: the self-cleavage was 0.116. With G11U C24U, the self-cleavage is 0.111. For C62U, the self-cleavage is 0.994. Turning to A8U C85A, the self-cleavage was determined as 0.959. U20C C30G: the self-cleavage was 0.447.

Take G59U A70U: the self-cleavage was 0.923.

Turning to C3G A77C, the self-cleavage turned out to be 0.233. For U9G A70G the value was 0.831; for C32A G74U, 0.117; for A43G C57U, 0.974. With C36U C57U, the self-cleavage is 0.679. As to C13A A56G, the self-cleavage was determined as 0.101. In the case of U23C C84A, the self-cleavage was determined as 0.911. Regarding G2U G29C, the self-cleavage was 0.0252.

Consider A16U A51C, for which the self-cleavage is 0.923. Take G29C G39U: the self-cleavage was 0.0992. Consider U9G U47A, for which the self-cleavage amounted to 1.16. Turning to C7A U69G, the self-cleavage came out at 0.751.

For U72C A77G, the self-cleavage amounted to 0.229. Take U23G A70C: the self-cleavage was 0.571. Regarding G28U C75U, the self-cleavage was determined as 0.136.

For the variant G35C A43U, the self-cleavage was determined as 0.0386. For C48G G55U, the self-cleavage is 0.972. Regarding U12C U72A, the self-cleavage stood at 0.107. The result for G54A G80A reads 0.443; that for C24U G73C, 0.0773.

As for G2A G53A, the self-cleavage came to 0.168. Take G40U G80C: the self-cleavage amounted to 0.0692. For the variant G68C A77C, the self-cleavage was found to be 0.185. As to G11A C86A, the self-cleavage was determined as 0.535. For G52C C58A, the self-cleavage is 0.796. A8C G53A: the self-cleavage is 0.846. On to A16C G50C, for which the self-cleavage stood at 0.959. C41U G55U: the self-cleavage is 1. As for G38U C62A, the self-cleavage was found to be 0.317. The result for G59C U65A reads 1.17; that for U37C U47G, 0.8; that for G1U A71U, 0.424. In the case of C33A G82A, the self-cleavage is 0.102. For A45G G81A the value was 0.435; for C19A U47G, 0.0361. In the case of G2C C18A, the self-cleavage turned out to be 0.0346. For C14A A78U the value was 0.0791; for U27G G34A, 0.415. The result for G31C C84G reads 0.193. As for U27A G74C, the self-cleavage stood at 0. For C15U U69C, the self-cleavage worked out at 0.643. On to C3A C18U, for which the self-cleavage is 0.00889.

For the variant C3A C18A, the self-cleavage was 0.0282. In the case of U23A A87C, the self-cleavage came out at 1. On to G17A C21U, for which the self-cleavage was 0. For C7U G80U the value was 0.117; for C15U C32G, 0.0489.

Turning to G53A U60C, the self-cleavage amounted to 0.935.

Regarding U47C C75A, the self-cleavage was 0.214. The result for C15G A43U reads 0.123; that for C22G C33A, 0. Take C15A C19U: the self-cleavage stood at 0.089. On to G11A U69A, for which the self-cleavage worked out at 0.166. The result for U9C C58G reads 1.14; that for G80U A83C, 0.254. Take C7G G53A: the self-cleavage was found to be 0.26.

A43C G53A: the self-cleavage was found to be 0.554. As for C21U C63G, the self-cleavage turned out to be 0.119.

In the case of C15A G29U, the self-cleavage is 0. In the case of C7G G11C, the self-cleavage worked out at 0. Take U9A C75U: the self-cleavage is 0.145. As for C30A G35C, the self-cleavage is 0.0678. Consider C19U G59A, for which the self-cleavage was 0.145. On to G68U G82C, for which the self-cleavage is 0.215.
